Laboratory results: patent publication US20210169973A1

Target: murine TMEM219 expressed on murine islets and the murine beta cell line beta-TC (mouse) (UniProt Q9D123)
Test: cell-based or functional assay

Sequence of UniProt Q9D123 (Q9D123 39-240): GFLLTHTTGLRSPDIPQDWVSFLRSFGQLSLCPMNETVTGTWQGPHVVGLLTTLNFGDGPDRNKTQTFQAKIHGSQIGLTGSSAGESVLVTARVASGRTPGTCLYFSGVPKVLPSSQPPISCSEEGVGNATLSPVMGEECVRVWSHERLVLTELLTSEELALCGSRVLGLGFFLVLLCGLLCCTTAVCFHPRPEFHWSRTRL

An early apoptosis of murine islets by FACS (Annexin V+ 7AAD-), IGFBP3-treated vs. untreated of 87% was found for “recombinant human IGFBP3 (Life Technologies, 10430H07H5) (from UniProt P17936 28-291) (ligand)” in this work.
